In this test the target is N-terminal protein A (PA)-Renilla luciferase (RL)-ARFRP1 fusion protein (UniProt Q13795). The test is described as follows: co-IP.
Sequence of UniProt Q13795 (Q13795 whole entry, the tested form may be a part): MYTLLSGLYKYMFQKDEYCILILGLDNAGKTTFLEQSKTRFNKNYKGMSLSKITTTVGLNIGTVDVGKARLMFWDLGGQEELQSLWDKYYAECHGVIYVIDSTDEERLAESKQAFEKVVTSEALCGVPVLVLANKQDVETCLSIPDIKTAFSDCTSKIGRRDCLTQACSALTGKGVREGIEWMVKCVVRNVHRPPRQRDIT

As to “V5-firefly luciferase (FL)-tagged VPS35 (from UniProt Q96QK1 1-796) (natural protein)”, the fold luciferase activity over control was 2.8 fold.

For the origin of these results see paper PMC7811047.
